Here are results for 1 molecule from patent US20150166643A1 (Alexion, published 2015).

Assay [1] deals with T1, human factor B (purified, Complement Technology A135) (human, UniProt P00751 26-764). Nature of the assay: cell-based or functional assay.
Assay [2] has as its target T1, human factor B (purified, Complement …). Nature of the assay: ELISA, plate coated with human factor B, anti-human kappa light chain HRP. As for the experimental part:
The binding activities of these mAbs towards factor B were analyzed by ELISA using standard protocols. In one exemplary experiment, MaxiSorp™ ELISA plates (Nunc, #439454, Rochester, N.Y.) were coated with 50 μL of human factor B (Complement Technology, A135, 1 mg/mL, lot 14c) at a concentration of 0.5 μg/mL in carbonate coating buffer (0.795 g carbonate+1.46 g bicarbonate+1 mL 1% NaN₃ (final concentration of 0.002%) in 500 mL water, pH 9.6 (lot 02 August 10)). Plates then were covered with plate sealers and incubated at 37±1° C. for one hour. Following coating, wells were emptied of reagent and washed in a BioTek® ELx405 plate washer (BioTek, Winooski, Vt.) for three times with 200 μL wash solution (PBS/0.05% Tween 20) per well. Following washes, wells were blocked with 100 μL of BSA (1% w/v) and incubated for one hour at room temperature. Wells were then washed again as described above. Fifty microliter samples (i.e., TA106 Fab, CLS011 mAb, CLS012 mAb, and CLS013 mAb) were then added to wells and incubated for one hour at room temperature. […] The plate was read on a Benchmark™ microplate reader (Bio-Rad Laboratories, Hercules, Calif.) at 450 nm. Standard curves were plotted with 4 parameter fit with DeltaSoft® 1.6 software, and sample concentrations were determined from the standard curves.
For orientation: In an ELISA, binding on a coated surface is turned into a signal by an enzyme label.

Assay [3] shares this target. The experiment in a line: BLI (Octet), biotinylated factor B on streptavidin biosensor, Fab at 100 nM. As for the experimental part:
(§1) Binding kinetics of TA106 and TA106 S33A Fab (CLS016) to Factor B were analyzed using a FortéBio® Octet® biosensor (FortéBio, Inc.) in a similar protocol as described previously. In one exemplary experiment, Factor B (Complement Technology) was biotinylated at a 1:10 ratio and coupled to a streptavidin biosensor at a concentration of 5 μg/mL for a loading time of 600 seconds. Biosensors were briefly dipped in 1×KB as a wash for 30 seconds. Associations with a titration series of Fab with a concentration range from 100 to 3 nM (diluted in 1×KB) were carried out for 600 seconds. Fabs were dissociated from the biosensor by immersing the biosensor in 1×KB during the 600 second dissociation phase. As depicted in FIGS. 19 and 20, both TA106 Fab and TA106-derivative S33A Fab (CLS016) bound to Factor B at various concentrations, resulting in nearly identical association and dissociation profiles. Kinetic assessments using partial local fit parameters yielded identical values for KD/kₐ/Kd at each concentration tested.
Background: Biolayer interferometry detects binding as a change in optical thickness at a sensor tip.

Assay [4] has the same target. Nature of the assay: BLI (Octet), biotinylated factor B on streptavidin biosensor, Fab at 12.5 nM. As for the experimental part: as §1
Assay [5] has the same target. Nature of the assay: SPR (Biacore), human factor B directly coupled to CM5 chip, Fab flowed at 0.19-25 nM. An excerpt: (§2) Binding kinetics of TA106 Fab and variant S33A Fab (CLS016) were further characterized using Surface Plasmon Resonance (SPR) technology. In one exemplary experiment, both Fabs were captured on chips of a Biacore 3000 analyzer and samples of human factor B of different concentrations were flowed as the antigen over the surface to model soluble human factor B binding, using protocols recommended by the manufacturer and described previously in the instant disclosure. […] In another exemplary experiment, the affinities of both Fabs were also measured by reversing the orientation of the previous experiment. Specifically, human factor B was directly coupled to one flow cell of a CM5 chip. The second flow cell was used as a blank reference with no coupled ligand. CLS016 or TA106 Fab was then flowed on both flow cells. Concentrations between 0.19 to 25 nM were run with duplicates. The surface was regenerated between each cycle.
On the technique in general: SPR reads the build-up and loss of mass on a sensor chip optically.

For assay [6] the target is unchanged. Nature of the assay: SPR (Biacore), factor B directly bound to the chip at low coverage, TA106 Fab flowed over. From the text:
(§3) The difference in the two Biacore data sets could be explained as either that the conformation of factor B changes when binding to the surface or that not all commercial factor B is active. This later Biacore experiment (with a fixed concentration of factor B bound to the chip) removed the factor B concentration from the calculation.

Assay [7] shares this target. The experiment in a line: SPR (Biacore), TA106 Fab captured on anti-Fab surface, soluble factor B flowed; Chi2 0.113.
Assay [8] shares this target. The experiment in a line: SPR (Biacore), factor B bound directly to the chip, free TA106 Fab flowed; Chi2 0.901 (the text rounds to 1.4 nM).
Source text: as §3

Assay [9] shares this target. The experiment in a line: SPR (Biacore), factor B coupled to the chip, free TA106 Fab 0.19-25 nM flowed; Chi2 1.58 (the text rounds to 1.2 nM).
Source text: as §2

T1 sequence (P00751 26-764): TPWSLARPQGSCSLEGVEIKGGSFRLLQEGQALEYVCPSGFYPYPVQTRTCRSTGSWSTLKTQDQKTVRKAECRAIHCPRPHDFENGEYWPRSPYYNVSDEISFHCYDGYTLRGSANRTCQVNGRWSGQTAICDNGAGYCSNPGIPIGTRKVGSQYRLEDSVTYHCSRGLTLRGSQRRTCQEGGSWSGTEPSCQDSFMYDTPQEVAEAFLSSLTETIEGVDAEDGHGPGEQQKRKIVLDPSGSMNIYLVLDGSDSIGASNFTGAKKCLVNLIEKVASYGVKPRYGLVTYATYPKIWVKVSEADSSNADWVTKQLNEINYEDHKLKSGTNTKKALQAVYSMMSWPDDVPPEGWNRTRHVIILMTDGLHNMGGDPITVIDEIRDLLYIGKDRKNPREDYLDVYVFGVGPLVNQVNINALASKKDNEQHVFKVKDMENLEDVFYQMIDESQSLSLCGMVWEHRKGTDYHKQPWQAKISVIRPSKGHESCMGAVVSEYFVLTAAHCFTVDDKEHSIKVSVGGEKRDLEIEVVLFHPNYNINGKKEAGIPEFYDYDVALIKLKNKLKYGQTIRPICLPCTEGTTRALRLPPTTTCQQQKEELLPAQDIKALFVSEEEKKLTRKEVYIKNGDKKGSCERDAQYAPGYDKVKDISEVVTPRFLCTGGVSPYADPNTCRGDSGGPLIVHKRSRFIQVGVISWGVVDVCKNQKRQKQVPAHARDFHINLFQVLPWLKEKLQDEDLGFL

B1: TA106 Fab (humaneered anti-factor B Fab, expressed in E. coli) (Fab, V domains shown)
VH: QVQLVQSGAEVKKPGASVKVSCKASGYSFTDYYMTWVRQAPGQGLEWMGWINPNSGGTKYAQKFQGRVTMTRDTSISTAYMELSRLRSDDTAVYYCARGYYANSAWFAYWGQGTLVTVSS
VL: DIVMTQSPDSLAVSLGERATINCKSSQSLLNSSTSKNYLAWYQQKPGQPPKLLIYWASTRESGVPDRFSGSGSGTDFTLTISSLQAEDVAVYYCKQVYNLPWTFGQGTKLEIKR
notes: Fab made in E. coli by Xoma, not glycosylated; also called Fab TA106; TA106 wild type Fab
What is called EC50 is the concentration at which the effect is half-maximal. In general, Kd refers to the concentration at which binding is half-saturated. Usually koff stands for the rate constant with which the complex falls apart. Read a low koff as slow dissociation. As usually defined, the kon is the second-order rate constant of association. On to B1, for which, in [1], the “IC50 (read off the curve); lysis of rabbit red blood cells in 10% normal human serum” value is ~80 nM. In addition, in assay [2], the EC50 is 0.57 nM. In addition, the Kd in [3] is 13 nM; in [4], 29.8 nM; in [5] it was ~1.2 nM; in assay [6], 1.4 nM; in assay [8], 1.39 nM; in assay [9], 1.17 nM. Further, the results for the koff in [3], in assay [4] and in [7] were 0.00405 s⁻¹, 0.00324 s⁻¹ and 0.0036 s⁻¹, respectively. Besides, the kon in assay [3] was found to be 312000 M⁻¹ s⁻¹; in [4], 109000 M⁻¹ s⁻¹; in [7] it was 118000 M⁻¹ s⁻¹.
